# Earlier results, collected in patent publication US5770691A, “Discriminatory substrates for MMP hydrolysis” (Regents of the University of Minnesota, priority 1995, dated 1998).
# Target: MMP-3 (Homo sapiens, UniProt P08254)
# Conditions: MMP-3 cleavage, determined at 37° C.
# Chain of MMP-3 (P08254 100-477, species assumed): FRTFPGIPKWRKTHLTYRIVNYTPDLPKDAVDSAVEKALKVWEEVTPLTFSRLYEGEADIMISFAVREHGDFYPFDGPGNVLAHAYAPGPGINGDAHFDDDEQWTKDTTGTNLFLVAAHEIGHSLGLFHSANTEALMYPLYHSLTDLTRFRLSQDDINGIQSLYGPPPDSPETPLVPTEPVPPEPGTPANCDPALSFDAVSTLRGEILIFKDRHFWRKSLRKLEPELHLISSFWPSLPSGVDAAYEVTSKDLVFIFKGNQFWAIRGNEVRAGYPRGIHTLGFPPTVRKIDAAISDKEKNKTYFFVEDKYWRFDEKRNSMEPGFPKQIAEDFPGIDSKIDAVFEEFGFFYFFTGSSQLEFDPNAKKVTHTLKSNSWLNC
molecule,measurement,value
"Human α1 -antichymotrypain: protease inhibitor cleaved by MMP-3 at Ala360-Leu361 (protein, UniProt P01011 24-423, looked up) Alpha-1-antichymotrypsin: HPNSPLDEENLTQENQDRGTHVDLGLASANVDFAFSLYKQLVLKAPDKNVIFSPLSISTALAFLSLGAHNTTLTEILKGLKFNLTETSEAEIHQSFQHLLRTLNQSSDELQLSMGNAMFVKEQLSLLDRFTEDAKRLYGSEAFATDFQDSAAAKKLINDYVKNGTRGKITDLIKDLDSQTMMVLVNYIFFKAKWEMPFDPQDTHQSRFYLSKKKWVMVPMMSLHHLTIPYFRDEELSCTVVELKYTGNASALFILPDQDKMEEVEAMLLPETLKRWRDSLEFREIGELYLPKFSISRDYNLNDILLQLGIEEAFTSKADLSGITGARNLAVSQVVHKAVLDVFEEGTEASAATAVKITLLSALVETRTIVRFNRPFLMIIVPTDTQNIFFMSKVTNPKQA",kcat /Kb,"35,000 S^-1 M^-1"
